Measurements reported in PMC9450138 (Redox Biology, 2022).

Molecular target: T1, Alexa Fluor 546 labelled PRDX1 (UniProt Q06830 1-199, Alexa Fluor 546 label (site not stated))
T1 sequence (looked up): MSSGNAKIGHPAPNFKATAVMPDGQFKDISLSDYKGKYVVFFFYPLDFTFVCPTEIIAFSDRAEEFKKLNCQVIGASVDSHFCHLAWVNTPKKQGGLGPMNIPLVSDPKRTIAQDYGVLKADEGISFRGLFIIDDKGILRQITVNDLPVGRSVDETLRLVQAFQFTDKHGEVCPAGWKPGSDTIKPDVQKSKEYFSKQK
Assay: other fluorescence titration

- apparent KD (first of two): 140 nM
- apparent KD (second of two): 610 nM
B1: RAD51 labelled with the QSY 35 quencher (natural protein, UniProt Q06609 1-339, looked up)
chain: MAMQMQLEANADTSVEEESFGPQPISRLEQCGINANDVKKLEEAGFHTVEAVAYAPKKELINIKGISEAKADKILAEAAKLVPMGFTTATEFHQRRSEIIQITTGSKELDKLLQGGIETGSITEMFGEFRTGKTQICHTLAVTCQLPIDRGGGEGKAMYIDTEGTFRPERLLAVAERYGLSGSDVLDNVAYARAFNTDHQTQLLYQASAMMVESRYALLIVDSATALYRTDYSGRGELSARQMHLARFLRMLLRLADEFGVAVVITNQVVAQVDGAAMFAADPKKPIGGNIIAHASTTRLYLRKGRGETRICKIYDSPCLPEAEAMFAINADGVGDAKD
modifications: QSY 35 quencher label (site not stated)
